B1: Cullin-3 (Caenorhabditis elegans), Q17391 (parent)
chain: MSGRSGNGGQQKMRIRPFMATIDEQYVTQTWELLKRAIQEIQRKNNSGLSFEELYRNAYTMVLHKHGERLYNGLKDVIQDHMASVRIRIIESMNSGSFLETVAESWADHTVAMVMIRDILMYMDRIYVAQNNHVLPVYNLGLDAYRTEILRQNGIGDRIRDALLELIKLDRKSNQINWHGIKNACDMLISLGIDSRTVYEDEFERPLLKETSDYYRDVCKNWLSGDNDACFYLAQVEIAMHDEASRASRYLDKMTEAKILQVMDDVMVAEHIQTIVYMQNGGVKFMLEHKKIEDLTRIFRIFKRIGDSVTVPGGGLKALLKAVSEYLNETGSNIVKNEDLLKNPVNFVNELLQLKDYFSSLLTTAFADDRDFKNRFQHDFETFLNSNRQSPEFVALYMDDMLRSGLKCVSDAEMDNKLDNVMILFRYLQEKDVFEKYFKQYLAKRLLLDKSCSDDVEKALLAKLKTECGCQFTQKLENMFRDKELWLTLATSFRDWREAQPTKMSIDISLRVLTAGVWPTVQCNPVVLPQELSVAYEMFTQYYTEKHTGRKLTINTLLGNADVKATFYPPPKASMSNEENGPGPSSSGESMKERKPEHKILQVNTHQMIILLQFNHHNRISCQQLMDELKIPERELKRNLQSLALGKASQRILVRKNKGKDAIDMSDEFAVNDNFQSKLTRVKVQMVTGKVESEPEIRETRQKVEDDRKLEVEAAIVRIMKARKKLNHNNLVAEVTQQLRHRFMPSPIIIKQRIETLIEREYLARDEHDHRAYQYIA
partner: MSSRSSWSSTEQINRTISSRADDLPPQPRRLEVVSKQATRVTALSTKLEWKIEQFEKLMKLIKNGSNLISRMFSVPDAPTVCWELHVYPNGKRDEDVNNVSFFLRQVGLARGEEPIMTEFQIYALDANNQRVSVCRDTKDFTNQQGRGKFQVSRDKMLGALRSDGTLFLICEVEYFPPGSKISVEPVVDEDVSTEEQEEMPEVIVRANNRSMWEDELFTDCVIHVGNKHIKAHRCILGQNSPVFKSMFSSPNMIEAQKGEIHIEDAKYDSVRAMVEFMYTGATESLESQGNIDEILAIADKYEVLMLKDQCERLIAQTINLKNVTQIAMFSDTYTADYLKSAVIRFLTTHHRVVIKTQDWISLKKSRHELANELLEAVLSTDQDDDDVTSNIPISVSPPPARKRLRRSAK
B2: Cullin-3 (Caenorhabditis elegans), Q17391 (parent)
chain: B1 chain
partner: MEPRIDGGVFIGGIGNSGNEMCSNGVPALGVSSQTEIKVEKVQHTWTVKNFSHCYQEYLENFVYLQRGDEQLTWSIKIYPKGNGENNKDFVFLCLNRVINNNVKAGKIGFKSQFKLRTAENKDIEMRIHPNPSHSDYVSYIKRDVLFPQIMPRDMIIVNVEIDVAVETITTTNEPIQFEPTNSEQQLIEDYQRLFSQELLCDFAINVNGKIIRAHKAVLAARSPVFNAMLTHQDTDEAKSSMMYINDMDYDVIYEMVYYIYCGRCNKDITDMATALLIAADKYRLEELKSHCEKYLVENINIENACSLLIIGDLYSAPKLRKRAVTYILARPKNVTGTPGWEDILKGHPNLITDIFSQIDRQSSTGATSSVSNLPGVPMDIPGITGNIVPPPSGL
B3: Protein maternal effect lethal 26 (Caenorhabditis elegans), Q94420 (parent)
chain: B2 partner
partner: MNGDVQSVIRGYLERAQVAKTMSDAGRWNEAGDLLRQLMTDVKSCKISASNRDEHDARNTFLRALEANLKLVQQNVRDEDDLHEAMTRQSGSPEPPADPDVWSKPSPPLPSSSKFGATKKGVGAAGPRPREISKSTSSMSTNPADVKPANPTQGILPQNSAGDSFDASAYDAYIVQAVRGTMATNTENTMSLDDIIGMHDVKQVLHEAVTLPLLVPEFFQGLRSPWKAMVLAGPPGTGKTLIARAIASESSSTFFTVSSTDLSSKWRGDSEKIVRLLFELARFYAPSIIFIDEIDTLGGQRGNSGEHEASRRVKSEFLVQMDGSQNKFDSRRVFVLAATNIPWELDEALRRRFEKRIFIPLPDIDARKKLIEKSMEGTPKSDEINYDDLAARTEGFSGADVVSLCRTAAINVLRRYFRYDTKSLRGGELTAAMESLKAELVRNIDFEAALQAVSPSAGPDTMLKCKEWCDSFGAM
B4: Meiotic spindle formation protein mei-1 (Caenorhabditis elegans), P34808-2 (parent)
chain: B3 partner
partner: B2 partner

The variants in the first experiment derive from B1. The following applies: with bat42_caeel bath-42, P34371.
Regarding E52A, the “effect of a mutation on the interaction” value is given as “decreasing interaction”.

L49A: the “effect of a mutation on the interaction” value is “decreasing interaction”.

Another experiment covers variants of B2. The following applies: with mel26_caeel mel-26, Q94420.
Regarding L49A, the “effect of a mutation on the interaction” value is “decreasing interaction”.

As to E52A, the “effect of a mutation on the interaction” value is on record as “decreasing interaction”.

Variants of B3 are the subject of a further experiment. The conditions noted are these: with mei-1, P34808-2.
Consider C94Y, for which the “effect of a mutation on the interaction” value was “decreasing interaction”.

In a further experiment the parent is B4. The following applies: with mel26_caeel mel-26, Q94420.
As for P99L, the “effect of a mutation on the interaction” value was “decreasing interaction”.
